For one substance, stoichiometry N results are on record in article PMC10732536.

The experiment addresses Spz, activated cystine-knot domain (Drosophila melanogaster). Description: non-reducing SDS-PAGE and immunoblot; proSpz cleaved by the activated proteases, in the absence of DTT (fig. S10); anti-Spz C106 antibody.

In general, stoichiometry N refers to a count of units in the complex or per binding partner. In turn, “Spz, activated cystine-knot domain (domain or fragment)” registered a stoichiometry N of 2.
